# Reference: publication PMC3314686 (2012)
# B1: GFP-DOR (human DOR/TP53INP2, full length) [modified: [35S]methionine label; [35S]methionine label] [human] / GST-LC3B (full-length proform) [human] (parent complex)
# chain 1: MFQRLSSLFFSTPSPPEDPDCPRAFVSEEDEVDGWLIIDLPDSYAAPPSPGAAPAPAGRPPPAPSLMDESWFVTPPACFTAEGPGLGPARLQSSPLEDLLIEHPSMSVYVTGSTIVLEPGSPSPLPDAALPDGDLSEGELTPARREPRAARHAAPLPARAALLEKAGQVRRLQRARQRAERHALSAKAVQRQNRARESRPRRSKNQSSFIYQPCQRQFNY
# chain 2: not shown
# Variants of: B1
# Experiment: GST pull-down; in vitro translated [35S]methionine-labelled GFP fusion; three independent experiments; parent: 21; read off a plot
row,Variant,response [% Binding]
1,"chain 1 W35A, chain 1 I38A",~3.4
